For assay [1], the target named is UbcH10~Ub conjugate (UbcH10(C114K)-Avi conjugated with His6-tagged ubiquitin), biotinylated (human) (UniProt O00762). Briefly: SPR.
For assay [2], the target named is Ube2S, biotinylated on an N-terminal Avi tag (human) (UniProt Q16763). The experiment in a line: SPR.
Ube2S, biotinylated on an N-terminal Avi tag (human), sequence (Q16763 whole entry): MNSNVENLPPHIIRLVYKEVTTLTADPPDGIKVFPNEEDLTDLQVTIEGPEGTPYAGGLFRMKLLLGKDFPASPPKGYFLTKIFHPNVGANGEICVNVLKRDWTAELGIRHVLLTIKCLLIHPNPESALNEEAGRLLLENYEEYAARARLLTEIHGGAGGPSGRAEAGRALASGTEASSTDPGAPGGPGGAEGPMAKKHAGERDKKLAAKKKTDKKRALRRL

UbcH10~Ub conjugate (UbcH10(C114K)-Avi conjugated with His6-tagged ubiquitin), biotinylated (human), sequence (O00762 whole entry C114K): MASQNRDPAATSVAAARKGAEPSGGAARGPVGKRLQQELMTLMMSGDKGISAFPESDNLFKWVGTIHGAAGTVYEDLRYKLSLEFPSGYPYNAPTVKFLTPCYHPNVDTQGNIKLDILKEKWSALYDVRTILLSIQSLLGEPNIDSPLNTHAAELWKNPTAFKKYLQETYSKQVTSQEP

In turn, “APC/C^Cdh1.Hsl1 ternary complex (from UniProt Q9H1A4;Q9UJX6;P30260;Q9UJX5;Q9UJX4;Q13042;Q9UJX3;Q9UJX2;Q9UM13;Q9NYG5;Q8NHZ8;Q9BS18;P60006;Q96DE5;Q9UM11;P34244)” returned a fold higher affinity than apo APC/C in assay [1] of 7 fold. The Kd in assay [2] was 0.2 µM.
In turn, “apo APC/C (from UniProt Q9H1A4;Q9UJX6;P30260;Q9UJX5;Q9UJX4;Q13042;Q9UJX3;Q9UJX2;Q9UM13;Q9NYG5;Q8NHZ8;Q9BS18;P60006;Q96DE5) (complex)” yielded a Kd in assay [2] of 0.3 µM.

The values above are taken from PMC4456660.
